Assay results from the supplement of paper PMC9170038.

Test system: MS2 coat protein
Assay: apparent KD of MS2 coat protein; designed switch direction (-1 OFF switch, 1 ON switch): -1; higher = weaker reporter binding
How it was run: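 Normalised cluster fluorescence was curve-fitted, and each design's median over clusters is its apparent KD. Before this, SNAP-549-labelled MS2 coat protein was titrated from 0.7 or 1.5 nM, doubling to 3 µM, over RNA switches transcribed on Illumina chips by stalled E. coli RNA polymerase. Titrations had no input, 200 uM small-molecule ligand, or an oligonucleotide input, and steps lasted 0.8–1.5 h (lowest) to 10–20 min (highest).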

[1] = Eterna round: R95, input ligand: microRNA oligo, concentration not stated
[2] = Eterna round: R95, input ligand: FMN 200 uM
[3] = Eterna round: R95, input ligand: none
[4] = input ligand: microRNA oligo, concentration not stated

Sequence | apparent KD of MS2 coat protein [1] | apparent KD of MS2 coat protein [2] | apparent KD of MS2 coat protein [3] | apparent KD of MS2 coat protein (input ligand: FMN 200 uM) | apparent KD of MS2 coat protein (input ligand: none) | apparent KD of MS2 coat protein [4]
CUUUUUUUUGUGAGGAUAUACUGUUAUUAAAGUUAGUAGAAGGUACAUGAGGAUCACCCAUGUUAAUUACUCUA [JR_BME4_Sub049] (puzzle: Brourd's mod of Exclusion 4) | 14.2 nM | – | – | – | – | –
CUGAGGUAGCGGUCCUAUGACAUGAGGAUCACCCAUGUACCUUGCUUCGAGCUUUUUGCUCGUCUUAUGAUUCUCAG [Mat - Sensor v3 - turn-off var 1 - JL Mod - D32] (puzzle: Sensor v3, turn-off variant 1) | 405 nM | 114 nM | 162 nM | – | – | –
AGAUGACAUGAGGAUCACCCAUGUUAGGAUAUUUAAGCCUGUACGCGCGUACUAGACGAGAGAAGGGACAUGGC [Eternabot (Original) Solution 39] (Eterna round: R97, puzzle: Exclusion 1) | – | – | – | 33.9 nM | 30.7 nM | –
AAGGAGUUAGGAUAUCGAAGAAGAAGAAGAAGAAGAAGAAGCGAGAAGGAACAUGAGGAUCACCCAUGUAAGAA [JR_Exclu4_Sub028] (puzzle: Exclusion 4) | 50.5 nM | 32.5 nM | 41.5 nM | – | – | –
UACAUGAGGAUCACCCAUGUUUUGUCGUGUAUGGUAUUUAUCUAGGAUAUCAAGUUAUUUAAUUAUGAGAAGGAGAAUAUUAAU [JMF's solution 34] (Eterna round: R96, puzzle: Exclusion NG 3) | – | – | – | 32.8 nM | 34.5 nM | 26.6 nM
CGAUGCUCGAAUCCACAUGAGGAUCACCCAUGUCGAGUUAGCGAGGAUAUCGGUGACACAUAGUAUGAGAAGGCGCGAACCUGA [Ex NG3 #24] (Eterna round: R96, puzzle: Exclusion NG 3) | – | – | – | 103 nM | 41.7 nM | 28 nM
UUUAAUUUAAUUAAGAUCACAUGAGGAUCACCCAUGUAUAUAUAGGAUAUCAGCUCGAUUAGAGCUGAGAAGGAUAUAUACAUA [ExNG3/4-A1] (Eterna round: R96, puzzle: Exclusion NG 3) | – | – | – | 164 nM | 58.9 nM | 215 nM
AGAGAAUAGUCAGGAUAUGUGAAUAGAUAGAGAACAGAAGGGACACAUGAGGAUCACCCAUGUGAAGUCUUGAGGCUGCGUGGA [Prohibition 21 - Jieux - Exclusion NG 1] (Eterna round: R96, puzzle: Exclusion NG 1) | – | – | – | 22.1 nM | 20.3 nM | 17.5 nM
CAGCUGUCAGGAUAUCGUGCAUACAACGAAAGUUCUAUGUGCGAGAAGGGACAUGAGGAUCACCCAUGUAAACG [Omei Ex4 A26] (Eterna round: R97, puzzle: Exclusion 4) | – | – | – | 101 nM | 57.4 nM | –
AUACCCAGAGGAUAUGCCGCUGGGUGCCCUCUGCAUAAAACACUUGAGGAUCACCCAAGUAGAAGGCUGGGCUC [Leiseses] (Eterna round: R97, puzzle: Exclusion 2) | – | – | – | 173 nM | 78.1 nM | –
CAGUACUGAGGAUAUACAUGAGGAUCACCCAUGUGUUCCUGCUAGGAAACUAGCAAAAGUAGAAGGCAGUACUG [salish99_ex3_r3_098x] (puzzle: Exclusion 3) | 28.5 nM | – | – | – | – | –
AGUAACUAUCACGAAAGUGAUAGUUACAAACAAGUGAAAACAUGAGGAUCACCCAUGUCCUCAUUUGCUCGUCUUAU [Sensor 3 - 7] (puzzle: Sensor v3, turn-off variant 2) | 884 nM | 182 nM | 329 nM | – | – | –
ACGUACAAGCCGAUCCUAAACAUGAGGAUCACCCAUGUGCUCGUUUUGUAAAGUACUAUCACGAAAGUGAUAGUACA (Eterna round: R97, puzzle: Sensor, turn-off variant 1) | – | – | – | 114 nM | 122 nM | –
UUUAAUGGAAUUAAGAUCACAUGAGGAUCACCCAUGUAUAUAUAGGAUAUCAGCUCGAUUAGAGCUGAGAAGGAUAUAUACAUA [ExNG3/6-B1] (Eterna round: R96, puzzle: Exclusion NG 3) | – | – | – | 31.6 nM | 91.6 nM | 199 nM
CACCGUUACAGAGGAUAUGGCACAUGAGGAUCACCCAUGUAAUAAAUGAGAAUUUCGGAUGUAUUCCAGAAGGCUGUAACCGGC [Ostricism 68 - Jieux - Exclusion NG 2] (Eterna round: R96, puzzle: Exclusion NG 2) | – | – | – | 41.2 nM | 35.6 nM | 19 nM
UCGCUCCGUGUAGGAUAUCGUUGUAUUCUGCGGCGAGAAGGACAUGAGGAUCACCCAUGUAUGUUAUUAUCACGCGUGGCGCAA [Design 67] (Eterna round: R96, puzzle: Exclusion NG 1) | – | – | – | – | – | 13.9 nM
AGAUCUAGGACAGGAUAUACGGAUGUCUUCAUCGAAGAUGAAGACAUCACAUGAGGAUCACCCAUGUAGAAGGGUCCUAGAUCA [Omei Exc(NG) 2A] (Eterna round: R96, puzzle: Exclusion NG 2) | – | – | – | 12.3 nM | 14.3 nM | 10.9 nM
CCUAUGUGAGGAUAUGGUGUUGGCCACAAGGAAAAGCUCCUCCAGAAGGCACAUGAGGAUCACCCAUGUCGUGG [Jolly's Folly 25 - Jieux - Exclusion 4] (Eterna round: R96, puzzle: Exclusion 4) | – | – | – | 212 nM | 61.1 nM | 48.2 nM
AAGUACUACAAGCUUCGGGACAUGAGGAUCACCCAUGUUCGUCUUAUUGAUCUAGGUACGCUGACGUACCUAGAUCU [Mat - Sensor v3 - turn-off var 1 - JL Mod - D11] (puzzle: Sensor v3, turn-off variant 1) | 39.2 nM | 14.1 nM | 14.2 nM | – | – | –
GAGUAGGGAGGAUAUACGUGCUCAAUCCCGCGAAGCGGGAAACAUGAGGAUCACCCAUGUAGAAGGCCCAUAAA [Inceveus] (puzzle: Exclusion 2) | 171 nM | 88.4 nM | 185 nM | – | – | –
AGCGAAGAGACAGGAUAUGAGAAUAGAUAGAACUCAGAAGGGUCACAUGAGGAUCACCCAUGUAAAGUCUUGAGGCUGCGUGGU [Prohibition 9 - Jieux - Exclusion NG 1] (Eterna round: R96, puzzle: Exclusion NG 1) | – | – | – | 141 nM | 71.9 nM | 50.7 nM
UUUAAUUUUUUUUUUUUACAAGCUUUUUGCUCGUCUUAUACAUGAGGAUCACCCAUGUAGGUGGGAGGUAAAUUAUC [JMF 79] (puzzle: Sensor v3, turn-off variant 2) | 116 nM | 40.8 nM | 43.8 nM | – | – | –
GCCUUGGGAGUCAGGAUAUACAAUAAAAUAAUUAAGUAGAAGGGACAUGAGGAUCACCCAUGUACAUUACAUCG [alecazam31] (Eterna round: R97, puzzle: Brourd's mod of Exclusion 4) | – | – | – | 39.5 nM | 25.7 nM | –
AGUCGUAGACAGGAUAUGCGGCUAAUAAAUAAUGCAGAAGGGUCUACUUGAGGAUCACCCAAGUGGGCGGUCUG [jl-ex6-4.23 ViennaUCT mod] (Eterna round: R97, puzzle: Exclusion 6) | – | – | – | 70.3 nM | 17.3 nM | –
